Results reported in FireProtDB (doi:10.1006/jmbi.1995.0325).

B1: Subtilisin inhibitor, P01006 (parent)
chain: MRNTGAGPSPSVSRPPPSAAPLSGAALAAPGDAPSALYAPSALVLTVGKGVSATTAAPERAVTLTCAPGPSGTHPAAGSACADLAAVGGDLNALTRGEDVMCPMVYDPVLLTVDGVWQGKRVSYERVFSNECEMNAHGSSVFAF

Variants of: B1
Conditions: Streptomyces albogriseolus, Thermal, DSC, reversible: yes, structure 3SSI, whole UniProt chain shown; for ddG of mutation (higher = less stable) / unfolding free energy: 53.36 °C

Variant	ddG of mutation (higher = less stable) (pH 3.2, glycine 25 mM)	unfolding free energy (pH 3.2, glycine 25 mM)	Tm (pH 3.2, glycine 25 mM)	change of melting temperature, mutant - wild type (higher = more stable) (pH 3.2, glycine 25 mM)	unfolding enthalpy (calorimetric) (pH 3.2, glycine 25 mM)	ddG of mutation (higher = less stable) (pH 7, phosphate 25 mM)	unfolding free energy (pH 7, phosphate 25 mM)	Tm (pH 7, phosphate 25 mM)	change of melting temperature, mutant - wild type (higher = more stable) (pH 7, phosphate 25 mM)	unfolding enthalpy (calorimetric) (pH 7, phosphate 25 mM)	ddG of mutation (higher = less stable) (pH 9.5, glycine 25 mM)	unfolding free energy (pH 9.5, glycine 25 mM)	Tm (pH 9.5, glycine 25 mM)	change of melting temperature, mutant - wild type (higher = more stable) (pH 9.5, glycine 25 mM)	unfolding enthalpy (calorimetric) (pH 9.5, glycine 25 mM)
M104A	-0.54 kcal/mol	6.09 kcal/mol	55 °C	1.66 °C	101 kcal/mol	-0.55 kcal/mol	6.58 kcal/mol	83.4 °C	1.16 °C	183 kcal/mol	-0.13 kcal/mol	6.17 kcal/mol	80.9 °C	0.18 °C	178 kcal/mol
M104E	-0.35 kcal/mol	5.9 kcal/mol	54.3 °C	0.98 °C	103 kcal/mol	-1.05 kcal/mol	7.08 kcal/mol	84.2 °C	1.99 °C	185 kcal/mol					
M104I	0.73 kcal/mol	4.82 kcal/mol				0.94 kcal/mol	5.09 kcal/mol	80.4 °C	-1.78 °C	193 kcal/mol			78.3 °C	-2.42 °C	189 kcal/mol
M104L	0.13 kcal/mol	5.42 kcal/mol	52.9 °C	-0.43 °C	108 kcal/mol	0.25 kcal/mol	5.78 kcal/mol	81.8 °C	-0.46 °C	193 kcal/mol	0.55 kcal/mol	5.49 kcal/mol			
M104V	0.46 kcal/mol	5.09 kcal/mol				0.66 kcal/mol	5.37 kcal/mol	81 °C	-1.17 °C	193 kcal/mol	0.95 kcal/mol	5.09 kcal/mol	79 °C	-1.75 °C	189 kcal/mol
M104D			56.8 °C	3.46 °C	98.7 kcal/mol	-1.6 kcal/mol	7.63 kcal/mol	85.3 °C	3.08 °C	182 kcal/mol	-1.25 kcal/mol	7.29 kcal/mol	83.3 °C	2.59 °C	177 kcal/mol
M104G			52.7 °C	-0.7 °C	106 kcal/mol	0.06 kcal/mol	5.97 kcal/mol				0.49 kcal/mol	5.55 kcal/mol	79.8 °C	-0.87 °C	186 kcal/mol
M104K			57.1 °C	3.71 °C	107 kcal/mol	-0.35 kcal/mol	6.38 kcal/mol	82.9 °C	0.65 °C	192 kcal/mol	-0.05 kcal/mol	6.09 kcal/mol	80.9 °C	0.17 °C	188 kcal/mol
